Laboratory results from patent publication US20230250168A1 (MABWELL SHANGHAI BIOSCIENCE, published 2023).

What was measured:
[1] = biological target: T1, antigen human CLDN18.2, His-tagged (human, UniProt P56856-2 1-261, limits assumed); assay: SPR (BIAcore), antibody captured by anti-human Fc, antigen as analyte
T1 construct: Recombinant antigen used in the Fortebio assay (His-tagged, captured on NTA probe); also called His-tagged antigen; not shown: His tag
Description: Referring to the instructions provided in the Human Antibody Capture Kit (cat No. BR-1008-39, Lot 10261753) from GE Healthcare, the analytical channel and the control sample channel on a CM5 sensor chip were first saturated and coupled with the maximum amount of anti-human Fc antibody, then buffers containing anti-human CLDN18.2 chimeric antibodies, humanized antibodies or a control antibody IMAB362 at 7.5 μg/ml were allowed to flow through the analytical channel and uniformly distribute. Finally, antigen samples diluted in gradient (the initial concentration was 20 nM and diluted by 1:3 to get 8 concentrations, and the concentration 0.741 nM was set to be repeated) were allowed to flow through both the analytical channel and the sample channel, and the photoreactions upon the binding of antibody to antigen were measured. Subsequently, the association constant Kon and dissociation constant Koff and affinity constant KD of each antibody were finally obtained by instrument software fitting analysis.

[2] = biological target: T1, antigen human CLDN18.2, His-tagged; assay: BLI (Fortebio), His-tagged antigen on NTA probe, 100 nM antibody, 1:1 fit
Description: (§1) The binding kinetic parameters of the chimeric antibodies and the humanized antibodies thereof to the antigen human CLDN18.2 were analyzed by a Fortebio (BLITZ pro1.1.0.28) instrument. Before performing the assay, an NTA bioprobe was soaked in PBS for 10 min, and the probe was then placed in PBS containing 100 nM antigen for 300 s to capture the His-tagged antigen. The probe was further subjected to a binding reaction with 100 nM antibody for a binding time of 400 s, and the probe was then transferred to PBS and subjected to a dissociation reaction for 600 s. When the assay was finished, data from which the response value of a blank control had been deducted were fitted to a 1:1 Langmuir binding model using software, and then the kinetic constants for antigen-antibody binding were calculated.

[3] = biological target: T1, antigen human CLDN18.2, His-tagged; assay: BLI (Fortebio), His-tagged antigen on NTA probe; ratio to 16K15-xiIgG
Description: as §1

[4] = biological target: human CLDN18.1 expressed on cell surfaces (human) (UniProt P56856); assay: cell-based or functional assay
[5] = biological target: human CLDN18.2 expressed on cell surfaces (human) (UniProt P56856); assay: cell-based or functional assay
[6] = biological target: T2, human CLDN18.2 expressed on cell surfaces (human, UniProt P56856-2 1-261); assay: cell-based or functional assay
[7] = biological target: T2, human CLDN18.2 expressed on cell …; assay: cell-based or functional assay; remark: listed apart in the source

| Kd [1] [nM] | koff [1] [s⁻¹] | kon [1] [M⁻¹ s⁻¹] | Kd [2] [nM] | Response [2] | koff [2] [s⁻¹] | kon [2] [M⁻¹ s⁻¹] | Koff/Koff(Xi-IgG) [3] | Human IFNγ detected in the supernatants of the culture systems (CAR-T cells with CHO-claduin18.1) [4] | Human IFNγ detected in the supernatants of the culture systems (CAR-T cells with CHO-claduin18.2) [5] | CDC EC50, BxPC3 cells stably expressing human CLDN18.2 (CCK-8) [6] [nM] | CDC EC50, CHOK1 cells stably expressing human CLDN18.2 (CCK-8) [6] [nM] | CDC EC50, NCI-N87 cells stably expressing human CLDN18.2 (CCK-8) [6] [nM] | ADCC reporter EC50 (Jurkat NFAT-luciferase effector cells), BxPC3 target cells [7] [nM] | ADCC reporter EC50 (Jurkat NFAT-luciferase effector cells), CHOK1 target cells [7] [nM] | ADCC reporter EC50 (Jurkat NFAT-luciferase effector cells), NCI-N87 target cells [7] [nM] | Binder |
| --- | --- | --- | --- | --- | --- | --- | --- | --- | --- | --- | --- | --- | --- | --- | --- | --- |
| 13.5 | 0.00144 | 107000 | 0.557 | 0.261 | 0.000154 | 276000 | 1 |  |  |  |  |  |  |  |  | 16K15-xiIgG (antibody, V domains shown, Murine variable regions on human IgG1 / kappa constant regions; also called 16K15 chimeric antibody) VH: EVMLVESGGGLVRPGGSLKLSCAGSGITLSTYAMSWVRQTPERRLEWVASIISGGITYYLDSVKGRFTISRDNARNILYLQMSSLRSEDTAIYYCARKYHGNALDYWGQGTSVTVSL VL: DIVMTQSPSSLPVTAGETVTMRCKSSQSLLNSGNQRNYLTWYQRKPGQPPKKLIYWASTRESGVPDRFTGSGSGTDFTLTISGVQAEDLAVYYCQNNYFYPLTFGAGTKLELKR |
|  |  |  |  |  |  |  |  | 4670 | 75500 |  |  |  |  |  |  | 8K13 (8K13-hz24) scfv, as CAR on T cells (scFv, not shown: small tags and cut ends) scFv: QVQLVQSGAEVKKPGSSVKVSCKASGYAFSNYWMNWVRQAPGQGLEWMGQIYPGSGDTKYSGKFQSRVTITADKSTNTAYMELSSLRSEDTAVYYCARFYYGNVMDYWGQGTLVTVSSGSTSGGGSGGGSGGGGSSDIVLTQSPDSLAVSLGERATINCKSSQTLLSGGNQKNYLTWYQQKPGQPPKLLIYWASTRESGVPDRFSGSGSGTDFTLTISSLQAEDLAVYYCQQGYSYPLTFGQGTKLEIK |
|  |  |  |  |  |  |  |  | 4540 | 78900 |  |  |  |  |  |  | 52E22 (52E22-hz12) scfv, as CAR on T cells (scFv, not shown: small tags and cut ends) scFv: QIQLVQSGSELKKPGASVKVSCKASGYTLTNYGMNWVRQAPGQGLEWMGWIRPNTGEPTYAEDFKGRFVFSLDTSVATAYLQITSLKAEDTAVYYCARLYRGNTLDNWGQGTLVTVSSGSTSGGGSGGGSGGGGSSDIVMTQSPDSLAVSLGERATINCKSSQNLLSSGNQRNYLTWYQQKPGQPPKLLIYWASTRESGVPDRFSGSGSGTDFTLTISSLQAEDLAVYYCQQGYSFPFTFGQGTKLEIK |
| 9.85 | 0.000563 | 57100 | 1.1 | 0.266 | 0.000286 | 259000 | 1.86 |  |  | 12.2 | 5.2 | 17.4 | 0.176 | 0.712 | 0.0677 | 16K15-hz22 (antibody, human IgG1, V domains shown, Humanized; also called 16K15-hz22 IgG; 16K15-22 IgG) VH: EVQLVESGGGLVQPGGSLRLSCAGSGITLSTYAMSWVRQAPGKGLEWVSSIISGGITYYLDSVKGRFTISRDNAKNTLYLQMSSLRAEDTAVYYCARKYHGNALDYWGQGTLVTVSS VL: DIVMTQSPDSLAVSLGERATINCKSSQSLLSSGNQRNYLTWYQQKPGQPPKKLIYWASTRESGVPDRFSGSGSGTDFTLTISSLQAEDLAVYYCQNNYFYPLTFGQGTKLEIK |
|  |  |  |  |  |  |  |  | 60300 | 79200 |  |  |  |  |  |  | 16k15 (16K15-hz22) scfv, as CAR on T cells (scFv, not shown: small tags and cut ends) scFv: EVQLVESGGGLVQPGGSLRLSCAGSGITLSTYAMSWVRQAPGKGLEWVSSIISGGITYYLDSVKGRFTISRDNAKNTLYLQMSSLRAEDTAVYYCARKYHGNALDYWGQGTLVTVSSGSTSGGGSGGGSGGGGSSDIVMTQSPDSLAVSLGERATINCKSSQSLLSSGNQRNYLTWYQQKPGQPPKKLIYWASTRESGVPDRFSGSGSGTDFTLTISSLQAEDLAVYYCQNNYFYPLTFGQGTKLEIK |
